Laboratory results published in patent US20250262210A1 (TRUSTEES OF COLUMBIA UNIVERSITY IN THE CITY OF NEW YORK, published 2025).

Legend:
[1] = target: T1, RNF123 (human, UniProt Q5XPI4 2-1314, limits assumed); assay: IP/MS, LZTR1 wild type-FLAG, U87
T1 sequence (looked up): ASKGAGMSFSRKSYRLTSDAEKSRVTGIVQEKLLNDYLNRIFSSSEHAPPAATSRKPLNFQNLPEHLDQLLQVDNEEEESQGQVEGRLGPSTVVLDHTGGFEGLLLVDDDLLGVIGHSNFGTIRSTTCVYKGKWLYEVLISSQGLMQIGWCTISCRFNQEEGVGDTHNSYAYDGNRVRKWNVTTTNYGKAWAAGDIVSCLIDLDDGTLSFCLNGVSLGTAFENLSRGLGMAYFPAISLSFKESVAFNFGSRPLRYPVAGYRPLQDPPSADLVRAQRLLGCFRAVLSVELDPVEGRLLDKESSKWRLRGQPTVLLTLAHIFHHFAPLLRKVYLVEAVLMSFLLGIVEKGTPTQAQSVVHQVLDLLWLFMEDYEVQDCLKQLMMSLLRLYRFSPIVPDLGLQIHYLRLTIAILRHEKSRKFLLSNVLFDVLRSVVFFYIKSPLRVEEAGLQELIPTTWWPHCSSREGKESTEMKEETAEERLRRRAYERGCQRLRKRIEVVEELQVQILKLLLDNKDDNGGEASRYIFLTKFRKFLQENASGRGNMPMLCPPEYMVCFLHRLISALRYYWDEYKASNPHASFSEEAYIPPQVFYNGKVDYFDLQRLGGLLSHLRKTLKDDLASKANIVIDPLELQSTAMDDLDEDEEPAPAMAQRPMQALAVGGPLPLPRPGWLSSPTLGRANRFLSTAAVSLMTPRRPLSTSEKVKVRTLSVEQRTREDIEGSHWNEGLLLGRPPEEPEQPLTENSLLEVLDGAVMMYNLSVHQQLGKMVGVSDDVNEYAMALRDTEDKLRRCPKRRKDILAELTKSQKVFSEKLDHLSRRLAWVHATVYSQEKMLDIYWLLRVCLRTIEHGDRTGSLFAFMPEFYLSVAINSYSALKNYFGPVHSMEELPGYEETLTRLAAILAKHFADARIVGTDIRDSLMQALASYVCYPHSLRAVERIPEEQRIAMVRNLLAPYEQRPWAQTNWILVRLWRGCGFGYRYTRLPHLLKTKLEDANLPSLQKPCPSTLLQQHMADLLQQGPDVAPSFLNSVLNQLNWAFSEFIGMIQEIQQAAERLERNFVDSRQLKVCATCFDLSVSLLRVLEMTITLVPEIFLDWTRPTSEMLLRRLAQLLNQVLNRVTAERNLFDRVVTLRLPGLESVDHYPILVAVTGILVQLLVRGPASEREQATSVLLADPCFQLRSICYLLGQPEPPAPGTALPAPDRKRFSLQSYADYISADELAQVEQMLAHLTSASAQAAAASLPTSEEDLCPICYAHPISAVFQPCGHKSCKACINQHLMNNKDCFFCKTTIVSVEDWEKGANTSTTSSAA
Summary of the method: (§1)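 Extracted peptides in 3% acetonitrile/0.1% formic acid ran on a 50 cm C18 column into an Orbitrap Fusion, with MaxQuant identification and spectral counting.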

[2] = target: CA9 (human, UniProt Q16790 38-459); assay: IP/MS, LZTR1 R810W-FLAG, U87
Summary of the method: as §1

[3] = target: CRYBG1 (human, UniProt Q9Y4K1 1-2131, limits assumed); assay: IP/MS, LZTR1 R810W-FLAG, U87
CRYBG1, sequence (Q9Y4K1 whole entry): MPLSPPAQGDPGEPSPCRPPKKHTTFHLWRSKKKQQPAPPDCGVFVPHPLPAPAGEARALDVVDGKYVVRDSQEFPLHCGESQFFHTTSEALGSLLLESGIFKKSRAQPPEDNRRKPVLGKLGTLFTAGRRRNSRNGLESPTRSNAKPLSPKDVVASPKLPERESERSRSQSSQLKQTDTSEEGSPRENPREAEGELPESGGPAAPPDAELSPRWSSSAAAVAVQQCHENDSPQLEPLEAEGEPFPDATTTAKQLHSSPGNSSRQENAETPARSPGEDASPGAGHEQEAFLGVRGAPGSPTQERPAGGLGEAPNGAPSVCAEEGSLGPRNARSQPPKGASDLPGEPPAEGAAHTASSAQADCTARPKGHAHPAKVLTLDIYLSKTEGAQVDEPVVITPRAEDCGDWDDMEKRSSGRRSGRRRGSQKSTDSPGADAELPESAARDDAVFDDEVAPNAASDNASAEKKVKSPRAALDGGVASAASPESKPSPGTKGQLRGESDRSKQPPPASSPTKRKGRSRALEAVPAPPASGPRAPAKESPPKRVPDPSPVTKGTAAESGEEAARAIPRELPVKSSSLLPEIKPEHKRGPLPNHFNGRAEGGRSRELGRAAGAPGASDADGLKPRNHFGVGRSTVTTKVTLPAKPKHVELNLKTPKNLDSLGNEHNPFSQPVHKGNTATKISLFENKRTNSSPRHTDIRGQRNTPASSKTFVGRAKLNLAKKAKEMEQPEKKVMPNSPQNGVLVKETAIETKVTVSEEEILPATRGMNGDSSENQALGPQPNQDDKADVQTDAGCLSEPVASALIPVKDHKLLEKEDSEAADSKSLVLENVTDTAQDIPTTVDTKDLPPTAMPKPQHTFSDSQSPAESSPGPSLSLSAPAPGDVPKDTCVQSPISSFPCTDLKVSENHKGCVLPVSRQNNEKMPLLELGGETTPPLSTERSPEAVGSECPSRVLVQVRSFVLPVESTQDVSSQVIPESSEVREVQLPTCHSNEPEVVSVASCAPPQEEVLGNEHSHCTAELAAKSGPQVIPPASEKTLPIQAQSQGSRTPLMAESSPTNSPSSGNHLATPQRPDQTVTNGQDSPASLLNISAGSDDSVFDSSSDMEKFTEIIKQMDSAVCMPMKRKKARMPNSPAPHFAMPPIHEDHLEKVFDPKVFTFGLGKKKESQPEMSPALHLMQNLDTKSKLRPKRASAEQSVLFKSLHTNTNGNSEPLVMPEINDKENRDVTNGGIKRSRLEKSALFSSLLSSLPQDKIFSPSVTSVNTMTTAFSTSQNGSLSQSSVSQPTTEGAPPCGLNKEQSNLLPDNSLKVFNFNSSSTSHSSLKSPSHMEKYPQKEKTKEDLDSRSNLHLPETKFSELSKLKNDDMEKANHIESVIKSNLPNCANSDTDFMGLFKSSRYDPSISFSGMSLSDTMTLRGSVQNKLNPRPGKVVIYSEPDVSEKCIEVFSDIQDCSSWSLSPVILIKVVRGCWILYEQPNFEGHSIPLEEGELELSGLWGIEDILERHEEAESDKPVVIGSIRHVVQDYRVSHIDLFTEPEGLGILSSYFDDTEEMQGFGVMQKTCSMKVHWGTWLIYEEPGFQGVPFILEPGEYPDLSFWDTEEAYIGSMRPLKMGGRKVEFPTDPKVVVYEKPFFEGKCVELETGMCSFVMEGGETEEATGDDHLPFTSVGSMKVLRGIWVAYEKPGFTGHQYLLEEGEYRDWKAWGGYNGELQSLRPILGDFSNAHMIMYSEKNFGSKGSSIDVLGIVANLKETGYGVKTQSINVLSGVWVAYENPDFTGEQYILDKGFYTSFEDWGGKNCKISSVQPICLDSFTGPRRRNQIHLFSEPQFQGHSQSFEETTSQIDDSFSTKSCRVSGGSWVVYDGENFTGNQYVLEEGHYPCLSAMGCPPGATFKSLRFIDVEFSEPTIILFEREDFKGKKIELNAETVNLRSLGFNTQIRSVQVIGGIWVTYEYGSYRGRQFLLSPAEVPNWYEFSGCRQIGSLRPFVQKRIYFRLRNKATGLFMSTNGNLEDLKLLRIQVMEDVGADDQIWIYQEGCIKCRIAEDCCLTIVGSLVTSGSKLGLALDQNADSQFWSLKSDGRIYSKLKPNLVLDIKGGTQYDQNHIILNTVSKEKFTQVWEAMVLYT
Summary of the method: as §1

[4] = target: VPS13A (human, UniProt Q96RL7 1-3174, limits assumed); assay: IP/MS, LZTR1 R810W-FLAG, U87
Summary of the method: as §1

[5] = target: PAPPA (human, UniProt Q13219 82-1627); assay: IP/MS, LZTR1 R810W-FLAG, U87
Summary of the method: as §1

[6] = target: KDM5C (human, UniProt P41229 1-1560, limits assumed); assay: IP/MS, LZTR1 R810W-FLAG, U87
Summary of the method: as §1

[7] = target: INTS1 (human, UniProt Q8N201 1-2190); assay: IP/MS, LZTR1 R810W-FLAG, U87
INTS1, sequence (Q8N201 whole entry): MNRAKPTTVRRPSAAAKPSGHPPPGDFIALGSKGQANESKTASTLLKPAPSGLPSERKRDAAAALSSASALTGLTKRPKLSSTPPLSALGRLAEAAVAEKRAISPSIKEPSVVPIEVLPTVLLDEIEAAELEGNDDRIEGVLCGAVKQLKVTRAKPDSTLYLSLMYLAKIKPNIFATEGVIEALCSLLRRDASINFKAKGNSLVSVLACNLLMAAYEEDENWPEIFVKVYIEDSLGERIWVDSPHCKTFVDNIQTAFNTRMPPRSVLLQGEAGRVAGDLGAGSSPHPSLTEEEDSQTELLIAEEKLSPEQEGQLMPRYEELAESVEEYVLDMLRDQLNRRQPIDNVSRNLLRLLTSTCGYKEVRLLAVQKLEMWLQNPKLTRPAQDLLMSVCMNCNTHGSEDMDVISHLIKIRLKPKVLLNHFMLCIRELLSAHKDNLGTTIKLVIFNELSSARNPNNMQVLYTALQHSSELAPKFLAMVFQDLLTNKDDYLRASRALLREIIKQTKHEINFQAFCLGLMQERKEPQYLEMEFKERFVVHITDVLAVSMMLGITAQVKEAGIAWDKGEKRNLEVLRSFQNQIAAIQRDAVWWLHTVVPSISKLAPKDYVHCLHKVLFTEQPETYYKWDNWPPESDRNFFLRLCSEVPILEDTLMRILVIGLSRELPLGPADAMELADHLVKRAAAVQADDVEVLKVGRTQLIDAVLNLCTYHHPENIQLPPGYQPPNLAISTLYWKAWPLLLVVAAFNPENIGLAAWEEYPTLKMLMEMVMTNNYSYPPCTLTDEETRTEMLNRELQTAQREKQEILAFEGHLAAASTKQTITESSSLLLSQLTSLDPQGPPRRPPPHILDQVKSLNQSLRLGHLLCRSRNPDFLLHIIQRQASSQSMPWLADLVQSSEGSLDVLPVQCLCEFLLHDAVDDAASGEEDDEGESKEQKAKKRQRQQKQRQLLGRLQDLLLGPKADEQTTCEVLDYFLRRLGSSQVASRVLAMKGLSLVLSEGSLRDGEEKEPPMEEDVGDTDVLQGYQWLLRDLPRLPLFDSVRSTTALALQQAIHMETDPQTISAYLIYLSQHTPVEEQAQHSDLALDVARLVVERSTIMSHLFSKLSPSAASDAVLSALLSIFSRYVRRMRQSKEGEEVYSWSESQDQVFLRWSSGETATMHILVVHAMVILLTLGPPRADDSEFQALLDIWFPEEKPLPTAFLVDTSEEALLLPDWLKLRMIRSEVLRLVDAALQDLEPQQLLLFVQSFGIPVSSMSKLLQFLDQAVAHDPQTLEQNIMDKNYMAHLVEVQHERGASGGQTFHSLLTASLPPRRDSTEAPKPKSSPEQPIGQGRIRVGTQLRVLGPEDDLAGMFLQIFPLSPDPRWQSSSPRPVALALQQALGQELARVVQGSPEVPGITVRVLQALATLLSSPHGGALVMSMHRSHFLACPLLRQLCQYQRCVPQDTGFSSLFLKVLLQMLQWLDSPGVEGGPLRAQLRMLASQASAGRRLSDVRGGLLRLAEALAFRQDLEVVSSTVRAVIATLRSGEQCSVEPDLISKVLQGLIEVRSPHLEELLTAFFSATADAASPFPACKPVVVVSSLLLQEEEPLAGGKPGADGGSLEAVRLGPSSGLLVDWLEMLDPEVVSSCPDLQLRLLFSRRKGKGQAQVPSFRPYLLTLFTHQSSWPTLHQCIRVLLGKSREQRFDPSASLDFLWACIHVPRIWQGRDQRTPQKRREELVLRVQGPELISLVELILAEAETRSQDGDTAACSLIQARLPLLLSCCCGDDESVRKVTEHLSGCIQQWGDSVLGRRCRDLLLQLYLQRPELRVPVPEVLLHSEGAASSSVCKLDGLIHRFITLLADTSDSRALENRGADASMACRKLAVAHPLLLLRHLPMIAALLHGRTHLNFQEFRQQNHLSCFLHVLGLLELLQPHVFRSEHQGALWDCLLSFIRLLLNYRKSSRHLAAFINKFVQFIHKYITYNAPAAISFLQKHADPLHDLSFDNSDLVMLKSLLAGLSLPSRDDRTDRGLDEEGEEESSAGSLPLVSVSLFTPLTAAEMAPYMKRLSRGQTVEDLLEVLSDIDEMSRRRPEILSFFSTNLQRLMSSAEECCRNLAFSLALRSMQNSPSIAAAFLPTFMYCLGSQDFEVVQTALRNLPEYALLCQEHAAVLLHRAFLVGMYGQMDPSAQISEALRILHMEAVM
Summary of the method: as §1

[8] = target: TRRAP (human, UniProt Q9Y4A5 2-3859, limits assumed); assay: IP/MS, LZTR1 R810W-FLAG, U87
Summary of the method: as §1

[9] = target: SPG11 (human, UniProt Q96JI7 1-2443, limits assumed); assay: IP/MS, LZTR1 R810W-FLAG, U87
Summary of the method: as §1

[10] = target: THADA (human, UniProt Q6YHU6 1-1953, limits assumed); assay: IP/MS, LZTR1 R810W-FLAG, U87
Summary of the method: as §1

Measured: binding result

B1: LZTR1-FLAG (other, human, UniProt Q8N653 1-840, looked up)
chain: MAGPGSTGGQIGAAALAGGARSKVAPSVDFDHSCSDSVEYLTLNFGPFETVHRWRRLPPCDEFVGARRSKHTVVAYKDAIYVFGGDNGKTMLNDLLRFDVKDCSWCRAFTTGTPPAPRYHHSAVVYGSSMFVFGGYTGDIYSNSNLKNKNDLFEYKFATGQWTEWKIEGRLPVARSAHGATVYSDKLWIFAGYDGNARLNDMWTIGLQDRELTCWEEVAQSGEIPPSCCNFPVAVCRDKMFVFSGQSGAKITNNLFQFEFKDKTWTRIPTEHLLRGSPPPPQRRYGHTMVAFDRHLYVFGGAADNTLPNELHCYDVDFQTWEVVQPSSDSEVGGAEVPERACASEEVPTLTYEERVGFKKSRDVFGLDFGTTSAKQPTQPASELPSGRLFHAAAVISDAMYIFGGTVDNNIRSGEMYRFQFSCYPKCTLHEDYGRLWESRQFCDVEFVLGEKEECVQGHVAIVTARSRWLRRKITQARERLAQKLEQEAAPVPREAPGVAAGGARPPLLHVAIREAEARPFEVLMQFLYTDKIKYPRKGHVEDVLLIMDVYKLALSFQLCRLEQLCRQYIEASVDLQNVLVVCESAARLQLSQLKEHCLNFVVKESHFNQVIMMKEFERLSSPLIVEIVRRKQQPPPRTPLDQPVDIGTSLIQDMKAYLEGAGAEFCDITLLLDGHPRPAHKAILAARSSYFEAMFRSFMPEDGQVNISIGEMVPSRQAFESMLRYIYYGEVNMPPEDSLYLFAAPYYYGFYNNRLQAYCKQNLEMNVTVQNVLQILEAADKTQALDMKRHCLHIIVHQFTKVSKLPTLRSLSQQLLLDIIDSLASHISDKQCAELGADI
notes: Expressed in HEK 293T, HeLa or U87 cells; used as cell lysate; also called LZTR1 wild type-FLAG; LZTR1 WT; not shown: FLAG tag at the C-terminus
binds: [1]

B2: LZTR1 R810W-FLAG (other, human, UniProt Q8N653 1-840, looked up)
chain: MAGPGSTGGQIGAAALAGGARSKVAPSVDFDHSCSDSVEYLTLNFGPFETVHRWRRLPPCDEFVGARRSKHTVVAYKDAIYVFGGDNGKTMLNDLLRFDVKDCSWCRAFTTGTPPAPRYHHSAVVYGSSMFVFGGYTGDIYSNSNLKNKNDLFEYKFATGQWTEWKIEGRLPVARSAHGATVYSDKLWIFAGYDGNARLNDMWTIGLQDRELTCWEEVAQSGEIPPSCCNFPVAVCRDKMFVFSGQSGAKITNNLFQFEFKDKTWTRIPTEHLLRGSPPPPQRRYGHTMVAFDRHLYVFGGAADNTLPNELHCYDVDFQTWEVVQPSSDSEVGGAEVPERACASEEVPTLTYEERVGFKKSRDVFGLDFGTTSAKQPTQPASELPSGRLFHAAAVISDAMYIFGGTVDNNIRSGEMYRFQFSCYPKCTLHEDYGRLWESRQFCDVEFVLGEKEECVQGHVAIVTARSRWLRRKITQARERLAQKLEQEAAPVPREAPGVAAGGARPPLLHVAIREAEARPFEVLMQFLYTDKIKYPRKGHVEDVLLIMDVYKLALSFQLCRLEQLCRQYIEASVDLQNVLVVCESAARLQLSQLKEHCLNFVVKESHFNQVIMMKEFERLSSPLIVEIVRRKQQPPPRTPLDQPVDIGTSLIQDMKAYLEGAGAEFCDITLLLDGHPRPAHKAILAARSSYFEAMFRSFMPEDGQVNISIGEMVPSRQAFESMLRYIYYGEVNMPPEDSLYLFAAPYYYGFYNNRLQAYCKQNLEMNVTVQNVLQILEAADKTQALDMKRHCLHIIVHQFTKVSKLPTLWSLSQQLLLDIIDSLASHISDKQCAELGADI
notes: Stably expressed in U87 cells by lentivirus; also called LZTR1-FLAG-R810W; LZTR1 RW; not shown: FLAG tag
not listed: [1]
binds: all other assays above
